{
  "source": "patent US20160200782A1",
  "about": "(MOERAE MATRIX, published 2016)",
  "binders": {"B1": {"name": "MMI-0400 (peptide)", "peptide": "KAFAKLAARLYRKALARQLGVAA"}, "B2": {"name": "MMI-0300 (peptide)", "peptide": "FAKLAARLYRKALARQLGVAA"}},
  "experiment_in_all_cases": "cell-based or functional assay",
  "key": {"EGFR(h)": {"target": "EGFR(h) (human, UniProt P00533 696-1210, limits assumed)"}, "Tie2(h)": {"target": "Tie2(h) (human, UniProt Q02763 771-1124, limits assumed)", "sequence (Q02763 771-1124 limits assumed)": "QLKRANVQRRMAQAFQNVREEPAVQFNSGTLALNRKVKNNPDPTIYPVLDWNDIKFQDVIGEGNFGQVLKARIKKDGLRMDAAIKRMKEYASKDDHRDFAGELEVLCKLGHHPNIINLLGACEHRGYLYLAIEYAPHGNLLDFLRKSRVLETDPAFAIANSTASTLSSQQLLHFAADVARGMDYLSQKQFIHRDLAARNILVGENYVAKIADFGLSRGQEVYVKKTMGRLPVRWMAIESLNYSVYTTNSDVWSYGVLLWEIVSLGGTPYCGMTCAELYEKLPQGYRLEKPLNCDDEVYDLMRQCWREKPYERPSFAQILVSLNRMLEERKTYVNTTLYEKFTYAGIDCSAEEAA"}, "Fer(h)": {"target": "Fer(h) (human, UniProt P16591 541-822, limits assumed)", "sequence (P16591 541-822 limits assumed)": "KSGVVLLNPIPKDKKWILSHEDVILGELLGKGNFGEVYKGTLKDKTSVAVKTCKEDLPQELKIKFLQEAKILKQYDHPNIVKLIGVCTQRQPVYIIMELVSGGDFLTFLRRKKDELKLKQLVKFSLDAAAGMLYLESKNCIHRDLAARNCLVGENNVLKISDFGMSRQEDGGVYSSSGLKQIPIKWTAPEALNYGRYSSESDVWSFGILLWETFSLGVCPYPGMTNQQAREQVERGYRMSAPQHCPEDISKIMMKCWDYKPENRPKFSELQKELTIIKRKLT"}, "Hck(h) activated": {"target": "Hck(h) activated (human, UniProt P08631 251-518, limits assumed)", "sequence (P08631 251-518 limits assumed)": "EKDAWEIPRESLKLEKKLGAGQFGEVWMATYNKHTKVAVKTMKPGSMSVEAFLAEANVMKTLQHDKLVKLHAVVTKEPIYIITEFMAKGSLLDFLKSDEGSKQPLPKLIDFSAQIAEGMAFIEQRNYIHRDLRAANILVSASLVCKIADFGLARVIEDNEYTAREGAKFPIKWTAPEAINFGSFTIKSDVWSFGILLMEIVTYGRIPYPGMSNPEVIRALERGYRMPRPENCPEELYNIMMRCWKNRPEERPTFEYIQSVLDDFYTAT"}, "Mer(h)": {"target": "T1, Mer(h) (human, UniProt Q12866 578-872, limits assumed)", "T1 sequence (looked up)": "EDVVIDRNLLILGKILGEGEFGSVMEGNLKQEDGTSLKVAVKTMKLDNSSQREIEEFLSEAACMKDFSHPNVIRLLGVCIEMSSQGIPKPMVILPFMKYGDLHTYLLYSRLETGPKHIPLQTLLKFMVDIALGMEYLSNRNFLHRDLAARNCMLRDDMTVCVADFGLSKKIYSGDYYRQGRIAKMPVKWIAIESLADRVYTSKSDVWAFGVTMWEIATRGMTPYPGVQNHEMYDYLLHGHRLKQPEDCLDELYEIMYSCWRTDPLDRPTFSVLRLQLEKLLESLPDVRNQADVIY"}, "CDK1/cyclinB(h)": {"target": "CDK1/cyclinB(h) (human, UniProt P06493 1-297; P06493 1-297)", "sequence (P06493 whole entry, chain 1 of 2)": "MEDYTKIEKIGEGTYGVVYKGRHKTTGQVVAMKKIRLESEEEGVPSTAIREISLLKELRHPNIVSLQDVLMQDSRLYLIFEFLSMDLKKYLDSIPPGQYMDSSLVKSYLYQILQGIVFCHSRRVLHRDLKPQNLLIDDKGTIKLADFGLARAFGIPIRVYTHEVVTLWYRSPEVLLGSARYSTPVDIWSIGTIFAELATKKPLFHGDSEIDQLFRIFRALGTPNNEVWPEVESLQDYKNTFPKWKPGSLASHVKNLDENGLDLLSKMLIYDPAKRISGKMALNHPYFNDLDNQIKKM", "sequence (P06493 whole entry, chain 2 of 2)": "as the sequence (P06493 whole entry, chain 1 of 2) above"}, "DAPK2(h)": {"target": "DAPK2(h) (human, UniProt Q9UIK4 1-370, limits assumed)", "sequence (Q9UIK4 whole entry)": "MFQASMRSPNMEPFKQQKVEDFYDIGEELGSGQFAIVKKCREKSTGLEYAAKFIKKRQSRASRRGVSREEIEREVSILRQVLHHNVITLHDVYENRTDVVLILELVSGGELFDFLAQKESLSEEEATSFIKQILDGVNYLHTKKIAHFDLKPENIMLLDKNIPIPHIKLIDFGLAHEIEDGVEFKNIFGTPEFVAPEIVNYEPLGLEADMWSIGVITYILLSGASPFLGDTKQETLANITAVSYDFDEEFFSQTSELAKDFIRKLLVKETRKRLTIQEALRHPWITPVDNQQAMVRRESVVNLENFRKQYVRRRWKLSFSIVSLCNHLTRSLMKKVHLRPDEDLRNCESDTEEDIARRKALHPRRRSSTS"}, "IGF-1R(h)": {"target": "IGF-1R(h) (human, UniProt P08069 959-1367, limits assumed)", "sequence (P08069 959-1367 limits assumed)": "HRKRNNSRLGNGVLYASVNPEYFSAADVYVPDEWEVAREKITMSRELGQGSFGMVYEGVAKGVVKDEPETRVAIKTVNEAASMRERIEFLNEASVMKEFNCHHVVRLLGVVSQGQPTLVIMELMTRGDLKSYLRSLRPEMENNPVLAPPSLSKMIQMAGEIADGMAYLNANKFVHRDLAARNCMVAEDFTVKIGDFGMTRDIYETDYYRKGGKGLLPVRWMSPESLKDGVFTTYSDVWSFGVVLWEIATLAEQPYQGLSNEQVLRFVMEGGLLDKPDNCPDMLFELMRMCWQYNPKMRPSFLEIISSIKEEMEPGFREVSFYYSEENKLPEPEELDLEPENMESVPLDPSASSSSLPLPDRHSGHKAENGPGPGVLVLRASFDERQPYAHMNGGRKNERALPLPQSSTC"}, "WNK3(h)": {"target": "WNK3(h) (human, UniProt Q9BYP7 1-434, limits assumed)", "sequence (Q9BYP7 1-434 limits assumed)": "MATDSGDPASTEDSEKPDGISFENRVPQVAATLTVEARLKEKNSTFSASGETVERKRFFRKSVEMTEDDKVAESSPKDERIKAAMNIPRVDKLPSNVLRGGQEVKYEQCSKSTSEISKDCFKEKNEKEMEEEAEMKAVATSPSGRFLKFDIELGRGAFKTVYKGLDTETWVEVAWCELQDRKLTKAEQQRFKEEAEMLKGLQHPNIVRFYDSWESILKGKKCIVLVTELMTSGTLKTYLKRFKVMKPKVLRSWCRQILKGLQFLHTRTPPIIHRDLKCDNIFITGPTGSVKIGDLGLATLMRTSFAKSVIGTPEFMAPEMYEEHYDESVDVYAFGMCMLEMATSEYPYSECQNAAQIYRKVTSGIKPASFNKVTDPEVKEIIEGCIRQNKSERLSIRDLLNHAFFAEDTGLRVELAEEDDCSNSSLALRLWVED"}, "Fyn(h)": {"target": "Fyn(h) (human, UniProt P06241 1-537, limits assumed)", "sequence (P06241 whole entry)": "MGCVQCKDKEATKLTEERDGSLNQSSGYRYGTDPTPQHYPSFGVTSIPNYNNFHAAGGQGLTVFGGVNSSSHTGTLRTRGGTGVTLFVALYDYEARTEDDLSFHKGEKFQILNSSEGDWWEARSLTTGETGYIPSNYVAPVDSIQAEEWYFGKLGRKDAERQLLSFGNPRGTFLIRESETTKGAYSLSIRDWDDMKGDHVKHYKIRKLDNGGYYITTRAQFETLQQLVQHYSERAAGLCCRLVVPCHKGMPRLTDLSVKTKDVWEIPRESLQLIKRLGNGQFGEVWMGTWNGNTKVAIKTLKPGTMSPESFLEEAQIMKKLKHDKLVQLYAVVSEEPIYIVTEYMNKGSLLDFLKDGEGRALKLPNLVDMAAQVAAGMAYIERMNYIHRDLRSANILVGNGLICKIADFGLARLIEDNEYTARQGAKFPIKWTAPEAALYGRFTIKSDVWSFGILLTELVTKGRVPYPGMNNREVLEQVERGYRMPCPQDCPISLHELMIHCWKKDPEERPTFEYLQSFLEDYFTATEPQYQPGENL"}, "JNK3(h)": {"target": "JNK3(h) (human, UniProt P53779 1-464, limits assumed)", "sequence (P53779 whole entry)": "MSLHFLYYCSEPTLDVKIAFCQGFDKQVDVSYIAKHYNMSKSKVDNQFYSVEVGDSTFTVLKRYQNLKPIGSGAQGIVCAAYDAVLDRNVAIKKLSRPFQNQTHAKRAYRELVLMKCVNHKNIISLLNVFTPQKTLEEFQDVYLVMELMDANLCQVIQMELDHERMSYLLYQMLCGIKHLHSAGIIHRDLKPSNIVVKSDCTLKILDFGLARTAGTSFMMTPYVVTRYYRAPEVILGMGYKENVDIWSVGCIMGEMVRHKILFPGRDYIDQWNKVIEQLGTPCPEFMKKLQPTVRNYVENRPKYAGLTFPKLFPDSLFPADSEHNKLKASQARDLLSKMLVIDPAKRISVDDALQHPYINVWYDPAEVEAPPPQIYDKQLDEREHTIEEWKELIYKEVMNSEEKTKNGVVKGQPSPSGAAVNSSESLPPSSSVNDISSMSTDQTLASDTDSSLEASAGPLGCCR"}, "BrSK2(h)": {"target": "T2, BrSK2(h) (human, UniProt Q8IWQ3 1-736, limits assumed)", "T2 sequence (looked up)": "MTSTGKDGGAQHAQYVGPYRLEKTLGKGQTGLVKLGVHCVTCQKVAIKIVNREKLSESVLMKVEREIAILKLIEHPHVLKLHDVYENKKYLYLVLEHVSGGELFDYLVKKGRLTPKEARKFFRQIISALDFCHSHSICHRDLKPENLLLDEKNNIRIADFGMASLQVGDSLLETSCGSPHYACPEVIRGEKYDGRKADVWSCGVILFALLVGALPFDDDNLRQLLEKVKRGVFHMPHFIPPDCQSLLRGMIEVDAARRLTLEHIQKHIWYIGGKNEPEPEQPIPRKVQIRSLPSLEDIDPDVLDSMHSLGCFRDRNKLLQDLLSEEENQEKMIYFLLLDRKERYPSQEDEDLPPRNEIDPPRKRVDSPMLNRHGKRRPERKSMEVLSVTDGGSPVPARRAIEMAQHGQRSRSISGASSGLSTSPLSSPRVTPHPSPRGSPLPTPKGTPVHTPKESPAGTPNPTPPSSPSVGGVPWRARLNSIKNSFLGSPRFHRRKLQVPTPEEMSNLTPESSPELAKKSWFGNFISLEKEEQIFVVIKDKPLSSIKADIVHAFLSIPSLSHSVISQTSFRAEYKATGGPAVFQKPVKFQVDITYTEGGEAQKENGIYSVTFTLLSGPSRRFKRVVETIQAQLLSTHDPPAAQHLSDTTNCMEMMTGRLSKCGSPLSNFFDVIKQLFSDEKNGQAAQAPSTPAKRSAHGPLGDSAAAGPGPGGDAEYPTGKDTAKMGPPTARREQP"}, "ZIPK(h)": {"target": "ZIPK(h) (human, UniProt O43293 1-454, limits assumed)", "sequence (O43293 whole entry)": "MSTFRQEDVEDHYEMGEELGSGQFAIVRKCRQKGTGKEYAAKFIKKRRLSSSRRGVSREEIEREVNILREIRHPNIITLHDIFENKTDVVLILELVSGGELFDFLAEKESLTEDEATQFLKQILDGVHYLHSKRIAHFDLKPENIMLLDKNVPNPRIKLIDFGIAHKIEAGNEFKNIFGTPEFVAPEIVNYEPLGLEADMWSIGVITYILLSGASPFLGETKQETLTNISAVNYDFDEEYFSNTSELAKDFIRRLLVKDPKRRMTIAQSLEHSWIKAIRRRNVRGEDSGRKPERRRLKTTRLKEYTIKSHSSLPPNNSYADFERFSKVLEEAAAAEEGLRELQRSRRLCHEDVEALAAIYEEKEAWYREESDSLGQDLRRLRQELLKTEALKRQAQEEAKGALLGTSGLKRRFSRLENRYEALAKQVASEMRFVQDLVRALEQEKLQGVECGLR"}, "Rsk3(h)": {"target": "Rsk3(h) (human, UniProt Q15349 1-733, limits assumed)", "sequence (Q15349 whole entry)": "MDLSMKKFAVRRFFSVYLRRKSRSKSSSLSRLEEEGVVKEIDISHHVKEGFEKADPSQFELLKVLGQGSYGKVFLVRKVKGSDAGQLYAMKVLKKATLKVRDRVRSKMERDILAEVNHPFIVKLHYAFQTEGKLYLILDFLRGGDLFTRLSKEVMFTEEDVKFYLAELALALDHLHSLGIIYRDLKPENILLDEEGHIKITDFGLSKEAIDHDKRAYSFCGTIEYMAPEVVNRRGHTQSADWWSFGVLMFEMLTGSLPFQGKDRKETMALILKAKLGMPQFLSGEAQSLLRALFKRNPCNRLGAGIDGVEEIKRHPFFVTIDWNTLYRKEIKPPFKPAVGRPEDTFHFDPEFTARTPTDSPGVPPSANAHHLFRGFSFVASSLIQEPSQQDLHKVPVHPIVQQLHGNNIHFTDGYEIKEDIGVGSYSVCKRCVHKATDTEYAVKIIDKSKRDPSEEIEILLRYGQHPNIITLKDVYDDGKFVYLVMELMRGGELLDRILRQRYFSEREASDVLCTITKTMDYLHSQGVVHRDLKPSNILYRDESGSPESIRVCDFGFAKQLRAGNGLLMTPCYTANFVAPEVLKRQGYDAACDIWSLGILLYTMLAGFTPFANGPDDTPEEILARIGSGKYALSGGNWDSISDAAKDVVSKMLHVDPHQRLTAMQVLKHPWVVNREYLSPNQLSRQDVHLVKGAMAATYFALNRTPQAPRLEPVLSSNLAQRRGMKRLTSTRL"}, "Haspin(h)": {"target": "T3, Haspin(h) (human, UniProt Q8TF76 471-798, limits assumed)", "T3 sequence (looked up)": "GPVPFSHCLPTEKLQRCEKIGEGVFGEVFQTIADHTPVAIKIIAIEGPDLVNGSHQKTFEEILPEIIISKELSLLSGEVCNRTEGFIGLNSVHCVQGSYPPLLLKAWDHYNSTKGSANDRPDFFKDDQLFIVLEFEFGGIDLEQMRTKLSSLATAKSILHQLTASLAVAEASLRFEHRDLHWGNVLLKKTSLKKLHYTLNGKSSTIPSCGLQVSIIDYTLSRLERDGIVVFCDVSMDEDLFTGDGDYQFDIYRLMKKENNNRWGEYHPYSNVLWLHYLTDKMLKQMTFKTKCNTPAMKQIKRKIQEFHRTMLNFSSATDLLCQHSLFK"}, "c-RAF(h)": {"target": "c-RAF(h) (human, UniProt P04049 306-648, limits assumed)"}},
  "data": [
    {"binder": "B1", "values": [
      {"measurement": "% activity", "setting": "EGFR(h)", "result": 16, "unit": "%"},
      {"measurement": "% activity", "setting": "Tie2(h)", "result": 21, "unit": "%"},
      {"measurement": "% activity", "setting": "Fer(h)", "result": 108, "unit": "%"},
      {"measurement": "% activity", "setting": "Hck(h) activated", "result": 81, "unit": "%"},
      {"measurement": "% activity", "setting": "Mer(h)", "result": 50, "unit": "%"},
      {"measurement": "% activity", "setting": "CDK1/cyclinB(h)", "result": 74, "unit": "%"},
      {"measurement": "% activity", "setting": "DAPK2(h)", "result": 16, "unit": "%"},
      {"measurement": "% activity", "setting": "IGF-1R(h)", "result": 90, "unit": "%"},
      {"measurement": "% activity", "setting": "WNK3(h)", "result": 74, "unit": "%"},
      {"measurement": "% activity", "setting": "Fyn(h)", "result": 54, "unit": "%"},
      {"measurement": "% activity", "setting": "JNK3(h)", "result": 70, "unit": "%"},
      {"measurement": "% activity", "setting": "BrSK2(h)", "result": 86, "unit": "%"},
      {"measurement": "% activity", "setting": "ZIPK(h)", "result": 13, "unit": "%"},
      {"measurement": "% activity", "setting": "Rsk3(h)", "result": 71, "unit": "%"},
      {"measurement": "% activity", "setting": "Haspin(h)", "result": 36, "unit": "%"},
      {"measurement": "% activity", "setting": "c-RAF(h)", "result": 102, "unit": "%"}
    ]},
    {"binder": "B2", "values": [
      {"measurement": "% activity", "setting": "EGFR(h)", "result": 21, "unit": "%"},
      {"measurement": "% activity", "setting": "Tie2(h)", "result": 26, "unit": "%"},
      {"measurement": "% activity", "setting": "Fer(h)", "result": 130, "unit": "%"},
      {"measurement": "% activity", "setting": "Hck(h) activated", "result": 82, "unit": "%"},
      {"measurement": "% activity", "setting": "Mer(h)", "result": 52, "unit": "%"},
      {"measurement": "% activity", "setting": "CDK1/cyclinB(h)", "result": 73, "unit": "%"},
      {"measurement": "% activity", "setting": "DAPK2(h)", "result": 32, "unit": "%"},
      {"measurement": "% activity", "setting": "IGF-1R(h)", "result": 119, "unit": "%"},
      {"measurement": "% activity", "setting": "WNK3(h)", "result": 77, "unit": "%"},
      {"measurement": "% activity", "setting": "Fyn(h)", "result": 74, "unit": "%"},
      {"measurement": "% activity", "setting": "JNK3(h)", "result": 89, "unit": "%"},
      {"measurement": "% activity", "setting": "BrSK2(h)", "result": 83, "unit": "%"},
      {"measurement": "% activity", "setting": "ZIPK(h)", "result": 28, "unit": "%"},
      {"measurement": "% activity", "setting": "Rsk3(h)", "result": 76, "unit": "%"},
      {"measurement": "% activity", "setting": "Haspin(h)", "result": 48, "unit": "%"},
      {"measurement": "% activity", "setting": "c-RAF(h)", "result": 107, "unit": "%"}
    ]}
  ]
}
